Test [1] concerns the target T1, E. coli expressed VEGF109 (human, UniProt P15692 207-315).
T1 construct: also called hVEGF109
T1 sequence: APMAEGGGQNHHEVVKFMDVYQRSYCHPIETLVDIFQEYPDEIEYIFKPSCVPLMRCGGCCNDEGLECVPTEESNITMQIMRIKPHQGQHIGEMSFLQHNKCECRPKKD
Description: SPR Biacore 3000, periplasmic extract over VEGF109-coated CM5 chip. The procedure:
(§1) Analysis of the results was done using BIAevaluation software. Off-rates were determined by the ‘fit kinetics separate ka/kd’ model, langmuir dissociation. A time interval of ±100s was used for the fitting.
(SPR reads the build-up and loss of mass on a sensor chip optically.)

Test [2] deals with T2, hVEGF165 (R&D Systems) (human, UniProt P15692 27-191).
T2 construct: mature; also called biotinylated hVEGF165
T2 sequence (P15692 other isoform, or with tags, fused parts or gaps): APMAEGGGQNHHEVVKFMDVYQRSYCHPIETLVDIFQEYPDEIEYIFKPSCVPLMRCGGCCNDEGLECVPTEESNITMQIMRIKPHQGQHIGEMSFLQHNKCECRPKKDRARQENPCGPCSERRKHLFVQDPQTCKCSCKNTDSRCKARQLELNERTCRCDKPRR
Description: SPR Biacore 3000, periplasmic extract over VEGF165-coated CM5 chip. The method, then: as §1

B1: PVEGFPMP42B10 (VHH)
VHH: EVQLVESGGGLVQAGGSLRLSCTASGRALDTYTVTWFRQTPGKEREFVASNRWNAKPYTTDSVKGRFTISRDNAKNTVYLQMNSLKPEDTAVYYCAADLTTWADGPYRYWGQGTQVTVSS
notes: tested as periplasmic extract; not shown: C-terminal c-myc tag and (His)6 tag from the vector
Take B1: the koff (commonly a measure of how fast the partners let go of each other) was determined as 0.000227 s⁻¹ in test [1] and 0.000362 s⁻¹ in test [2].

B2: PVEGFPMP42F1 (VHH)
VHH: EVQLVESGGGLVQPGGSLRLSCAASGRALDTYTVTWFRQTPGKTREFVASVRWNAKPYTTDSVKGRFTISRDNAKNTVYLQMNSLKPEDTAVYYCAADPTTWADGPYRYWGQGTQVTVSS
notes: as for B1
For B2, the koff in test [1] came out at 0.000278 s⁻¹; in test [2], 0.000501 s⁻¹.

B3: PVEGFPMP42C5 (VHH)
VHH: KVQLVESGGGLVQAGGSLRLSCAASGRALDTYTVTWFRQTPGKEREFVASIRWNAKPYTTDSVKGRFTISRDNAKNTVYLQMNSLKPEDTAIYYCAADLTTWADGPYRYWGQGTQVTVSS
notes: as for B1
With B3, the figures for the dissociation rate constant (koff) in test [1] and in test [2] were 0.000448 s⁻¹ and 0.000641 s⁻¹, respectively.

B4: PVEGFPMP42E2 (VHH)
VHH: EVQLVESGGGLVQAGGSLRLSCAASGRALDTYTVTWFRQTPGKGREFLASIRWNAKPYTTDSVKGRFTMSRDNAKNTVYLQMNSLRPEDTAVYYCAADPTTWADGPYRYWGQGTQVTVSS
notes: as for B1
Turning to B4, the koff in test [1] is 0.000134 s⁻¹; in test [2], 0.000311 s⁻¹.

B5: PVEGFPMP42G5 (VHH)
VHH: EVHLVESGGGLVQAGGSLRLSCAASGRALDTYTVTWFRQTPGKTREFVASVRWNAKPYTTDSVKGRFTISRDNAKNTVYLQMNSLKPEDTAVYYCAADPTTWADGPYRYWGQGTQVTVSS
notes: as for B1
As for B5, the koff in test [1] was 0.000251 s⁻¹; in test [2] it was 0.000447 s⁻¹.

B6: PVEGFPMP42H5 (VHH)
VHH: EVQLVESGGGLVQAGGSLRLSCTASGRALDTYTVTWFRQTPGKEREFVASNRWNAKPYVTDSVKGRFTISRDNAKNTVYLQMNSLKPEDTAVYYCAADLTTWADGPYRYWGQGTQVTVSS
notes: as for B1
With B6, the values for the koff in test [1] and in test [2] were 0.000315 s⁻¹ and 0.000528 s⁻¹, respectively.

B7: PVEGFPMP42E3 (VHH)
VHH: EVQLVESGGGLVQAGGALRLSCAASGRTFETYRMGWFRQAPGKEREFVALINWSSGTTIYADSVKGRFTISGDNAKDTVYLEMNSLKPEDTAVYYCAVGRRWSGSYYSALAYQYWGQGTQVTVSS
notes: as for B1
With B7, the koff amounted to 0.000689 s⁻¹ in test [1] and 0.0015 s⁻¹ in test [2].

B8: PVEGFPMP42C10 (VHH)
VHH: EVQLVESGGGLVQAGGALRLSCAVSGRTFESYRMGWFRQAPGKEREFVSLINWSSGKTIYADSVKGRFTISGDNAKDTVYLEMNSLKPEDTAVYYCAVGRAWSGSYYSALAYQYWGQGTQVTVSS
notes: as for B1
B8: the koff in test [1] stood at 0.00753 s⁻¹; in test [2], 0.0168 s⁻¹.

B9: PVEGFPMP42E4 (VHH)
VHH: EVQLMESGGGLVQAGGSLRLSCAVSGRTFESYRMGWFRQAPGKEREFVSLINWSSGKTIYADSVKGRFTISGDNAKDTVYLEMNSLKPEDTAVYYCAVGRAWSGSYYSALAYQYWGQGTQVTVSS
notes: as for B1
For B9, the koff in test [1] amounted to 0.00774 s⁻¹; in test [2], 0.02 s⁻¹.

B10: PVEGFPMP42D10 (VHH)
VHH: EVQLVESGGGLVQAGGALRLSCAASGRTFETYRMGWFRQAPGKEREFVALINWSSGITVYLDSVKGRFTISGDNAKDTVYLEMNSLKPEDTAVYYCAVGRAWSGSYYSALAYQYWGQGTQVTVSS
notes: as for B1
Consider B10, for which the koff in test [1] is 0.00411 s⁻¹; in test [2], 0.00634 s⁻¹.

B11: PVEGFPMP42D5 (VHH)
VHH: EVQLVESGGGLVHAGGALRLSCAASGRAFETYRMGWFRQAPGKEREFVALINWSSGTTVYADSVKGRFTISGDNAKDTVYLEMNSLKPEDTAVYYCAVGRRWSGSYYSALAYQYWGQGTQVTVSS
notes: as for B1
On to B11, for which the koff in test [1] was 0.000368 s⁻¹; in test [2] it was 0.00147 s⁻¹.

B12: PVEGFPMP42C7 (VHH)
VHH: EVQLVESGGGLVQAGGALRLSCAASGRTFETYRMGWFRQAPGKEREFVALINWSSGTTIYADSVKGRFTISGDNAKDTVYLEMNSLKPEDTAVYYCAVGRRWSGSYYSALAYQYWGKGTQVTVSS
notes: as for B1
Regarding B12, the koff in test [1] turned out to be 0.00061 s⁻¹; in test [2] it was 0.00151 s⁻¹.

B13: PVEGFPMP42D7 (VHH)
VHH: EVQLVESGGGLVQAGGALRPSCAASGRTFETYRMGWFRQAPGKEREFVALINWSSGTTVYADSVKGRFTISGDNAKDTVYLEMNSLKPEDTAVYYCAVGRRWSGSYYSALAYQYWGQGTQVTVSS
notes: as for B1
With B13, the koff was 0.000176 s⁻¹ in test [1] and 0.00094 s⁻¹ in test [2].

B14: PVEGFPMP42H9 (VHH)
VHH: EVQLVESGGGLVQAGGALRLSCAASGRTFETYRMGWFRQAPGKEREFVALINWSSGTTVYADSVKGRFTISGDNAKDTVYLEMNSLKPEDTAVYYCAVGRRWSGSYYSALAYQYWGQGTQVTVSS
notes: as for B1
Take B14: the koff in test [1] was determined as 0.000315 s⁻¹; in test [2], 0.00149 s⁻¹.

B15: PVEGFPMP42A5 (VHH)
VHH: EVQLVESGGGLVQAGGSLRLSCAASGRTFSGVDVAWFRQAPGKEREFVAALAWSGIRTYYAVSVKGRFTISRGDPNDTVYLQMTSLKPEDTAVYYCATGRASRTSDYYTDRIYDSWGQGAQVTVSS
notes: as for B1
As for B15, the koff in test [1] is 0.00167 s⁻¹; in test [2] it was 0.00154 s⁻¹.

B16: PVEGFPMP42F10 (VHH)
VHH: EVQLVESGGGLVQAGGSLRLSCAASGRTFSGVDVAWFRQATGKEREFVAALAWSGIRTYYAVSVKGRFTISRGDPNDTVYLQMTSLKPEDTAVYYCATGRASRTSDYYTDRIYDSWGQGAQVTVSS
notes: as for B1
In the case of B16, the koff in test [1] came out at 0.00176 s⁻¹; in test [2], 0.00165 s⁻¹.

B17: PVEGFPMP42A3 (VHH)
VHH: EVPMVESGGGLVQAGGSLRLSCAASGRTFSGVDVAWFRQAPGKEREFVAALAWSGIRTYYAVSVKGRFTISRGDPNDTVYLQMTSLKPEDTAVYYCATGRASRTSDYYTDRIYDSWGQGAQVTVSS
notes: as for B1
In the case of B17, the off-rate (koff) in test [1] came to 0.00284 s⁻¹; in test [2], 0.00259 s⁻¹.

B18: PVEGFPMP42C1 (VHH)
VHH: EVQLVESGGGLVQAGGSLRLSCAASGRTFSGVDVAWFRQAPGKEREFVAALAWSGIRTYYAVSVKGRFTISRGNPNDTVYLQMTSLKPEDTAVYYCATGRAYRGSDYYTDRIYDSWGQGAQVTVSS
notes: as for B1
For B18, the koff in test [1] stood at 0.00825 s⁻¹; in test [2], 0.00835 s⁻¹.

For the origin of these results see US20100120681A1 (Ablynx, published 2010).
